For series [1], the target named is T1, IL-7Rα (Homo sapiens, UniProt P16871).
T1 construct: IL-7Rα (residues 37-231, Uniprot ID P16871); IgK signal peptide (N); made in house; host or cells: mammalian cells
T1 sequence (P16871 37-231): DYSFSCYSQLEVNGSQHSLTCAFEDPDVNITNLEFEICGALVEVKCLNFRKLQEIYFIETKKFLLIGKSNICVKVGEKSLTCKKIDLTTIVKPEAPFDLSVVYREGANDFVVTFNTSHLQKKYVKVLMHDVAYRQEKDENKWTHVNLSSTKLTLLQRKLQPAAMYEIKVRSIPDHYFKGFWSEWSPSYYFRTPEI
In words: Biolayer interferometry binding to IL-7Rα. A general note: In BLI a coated tip is dipped into the sample, and binding shifts an interference pattern.

A short description of series [2]: Circular dichroism wavelength scans and temperature melts (Tm). The series is classed as physicochemical. A general note: Circular dichroism is widely used to follow secondary structure.
The target of series [3] is T2, PDGFR ectodomain (residues 33-314) (human, UniProt P09619 33-314).
T2 construct: range 33-314; also called Platelet-derived growth factor receptor
T2 sequence (P09619 other isoform, or with tags, fused parts or gaps limits assumed): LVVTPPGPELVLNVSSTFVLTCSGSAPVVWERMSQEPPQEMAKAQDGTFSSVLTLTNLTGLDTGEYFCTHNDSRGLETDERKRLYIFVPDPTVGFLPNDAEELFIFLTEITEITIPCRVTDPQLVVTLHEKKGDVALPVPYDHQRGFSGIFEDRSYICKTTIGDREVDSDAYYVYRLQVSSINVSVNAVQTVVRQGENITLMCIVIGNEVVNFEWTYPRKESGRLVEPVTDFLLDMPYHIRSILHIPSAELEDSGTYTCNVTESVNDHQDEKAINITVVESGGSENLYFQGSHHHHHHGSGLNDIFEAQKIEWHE
In words: BLI (Octet); biotinylated target on streptavidin sensors, miniprotein as analyte.

Series [4] concerns the target Human TrkA ECD (residues 36-382) with C-terminal BAP tag and 6xHis tag (human, UniProt P04629 36-382). In words: biolayer interferometry.
Series [5] addresses human TrkA ECD (residues 36-382) (human, UniProt P04629 36-382). In words: BLI (Octet); biotinylated target on streptavidin sensors, miniprotein as analyte.
The target of series [6] is T3, FGFR2 (Homo sapiens, UniProt P21802).
T3 construct: FGFR2 (residues 147-366, Uniprot ID P21802); IgK signal peptide (N); made in house; host or cells: mammalian cells
T3 sequence (P21802 147-366): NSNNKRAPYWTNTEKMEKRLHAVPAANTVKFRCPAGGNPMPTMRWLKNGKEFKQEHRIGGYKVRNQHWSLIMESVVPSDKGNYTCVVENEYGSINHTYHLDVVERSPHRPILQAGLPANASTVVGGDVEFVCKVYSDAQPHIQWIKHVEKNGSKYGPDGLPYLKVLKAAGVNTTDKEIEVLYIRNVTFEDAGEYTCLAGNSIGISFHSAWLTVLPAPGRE
In words: Biolayer interferometry binding to FGFR2.

In series [7] the test system is signaling through FGFR2. In words: Inhibition of native agonist signaling through FGFR2 on cells in culture. The series is classed as cell-based. The following applies: data not shown.
Series [8] addresses Influenza A H3 hemagglutinin (A/Hong Kong/1/1968) ectodomain (Influenza A virus (A/Hong Kong/1/1968), UniProt Q91MA7 17-530). In words: BLI (Octet); biotinylated target on streptavidin sensors, miniprotein as analyte.
Series [9] addresses T4, Influenza A H1 hemagglutinin (A/Puerto Rico/8/1934), ectodomain (Influenza A virus (A/Puerto Rico/8/1934), UniProt P03452 18-528).
T4 construct: extracellular domain
In words: method not named in the sentence (FIG. 7b).

Series [10] concerns the target T5, InsulinR (Homo sapiens, UniProt P06213).
T5 construct: InsulinR (residues ID 28-953, Uniprot ID P06213); IgK signal peptide (N); TEV cleavage site (C); 6-His-tag (C); AviTag (C); made in house; host or cells: mammalian cells
In words: Biolayer interferometry binding to InsulinR (miniprotein on AR2G biosensor, receptor as analyte).

The target of series [11] is T6, InsulinR ectodomain (residues 28-953) (human, UniProt P06213 28-953).
T6 construct: range 28-953; also called IR; Insulin receptor
In words: BLI (Octet); miniprotein immobilized on AR2G sensors, insulin receptor as analyte.

Series [12] addresses T7, Tie2 ectodomain (residues 23-445) (human, UniProt Q02763 23-445).
T7 construct: range 23-445; also called Angiopoietin-1 receptor
In words: BLI (Octet); biotinylated target on streptavidin sensors, MBP-tagged miniprotein as analyte.

The target in series [13] is T8, Tie2 (Homo sapiens, UniProt Q02763).
T8 construct: Tie2 (residues 23-445, Uniprot ID Q02763); IgK signal peptide (N); made in house; host or cells: mammalian cells
T8 sequence (Q02763 23-445): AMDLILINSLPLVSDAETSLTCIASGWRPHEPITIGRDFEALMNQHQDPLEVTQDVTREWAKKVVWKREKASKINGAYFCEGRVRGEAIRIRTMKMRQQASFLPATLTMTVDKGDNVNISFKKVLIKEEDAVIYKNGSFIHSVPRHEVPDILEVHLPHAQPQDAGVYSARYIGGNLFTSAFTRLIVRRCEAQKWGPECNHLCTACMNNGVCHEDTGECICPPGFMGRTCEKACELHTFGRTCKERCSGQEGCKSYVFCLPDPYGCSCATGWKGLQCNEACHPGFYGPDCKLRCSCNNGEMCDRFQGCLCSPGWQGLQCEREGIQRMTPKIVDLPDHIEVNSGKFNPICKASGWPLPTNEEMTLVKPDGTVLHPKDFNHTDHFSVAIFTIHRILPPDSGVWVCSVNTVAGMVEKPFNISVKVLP
In words: Biolayer interferometry binding to Tie2 (MBP-tagged miniprotein as analyte).

For series [14], the target named is T9, IGF1R ectodomain (residues 31-930) (human, UniProt P08069 31-930).
T9 construct: range 31-930; also called IGFIR; Insulin-like growth factor 1 receptor
In words: BLI (Octet); biotinylated target on streptavidin sensors, MBP-tagged miniprotein as analyte.

Series [15] concerns the target T10, IGF1R (Homo sapiens, UniProt P08069).
T10 construct: IGF1R (residues 31-930, Uniprot ID P08069); IgK signal peptide (N); made in house; host or cells: mammalian cells
In words: Biolayer interferometry binding to IGF1R (MBP-tagged miniprotein as analyte).

The target of series [16] is T11, EGFR ectodomain (residues 25-525) (human, UniProt P00533 25-525).
T11 construct: also called EGER; Epidermal growth factor receptor
In words: BLI (Octet); biotinylated target on streptavidin sensors, miniprotein as analyte.

The target of series [17] is IL-7Rα ectodomain (residues 37-231) (human, UniProt P16871 37-231). The series is described as above.
Sequence of IL-7Rα ectodomain (residues 37-231) (P16871 other isoform, or with tags, fused parts or gaps limits assumed): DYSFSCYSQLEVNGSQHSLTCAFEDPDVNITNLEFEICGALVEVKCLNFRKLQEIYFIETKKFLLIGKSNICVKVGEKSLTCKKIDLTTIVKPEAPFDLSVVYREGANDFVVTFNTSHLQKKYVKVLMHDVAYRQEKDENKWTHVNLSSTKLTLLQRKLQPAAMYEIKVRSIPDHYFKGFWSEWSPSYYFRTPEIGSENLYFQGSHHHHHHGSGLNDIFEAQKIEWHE
The target of series [18] is T12, FGFR2 ectodomain (residues 147-366) with C-terminal TEV/His/AviTag (human, UniProt P21802 147-366).
T12 construct: range 147-366; also called Fibroblast growth factor receptor 2
T12 sequence (P21802 other isoform, or with tags, fused parts or gaps limits assumed, form in doubt): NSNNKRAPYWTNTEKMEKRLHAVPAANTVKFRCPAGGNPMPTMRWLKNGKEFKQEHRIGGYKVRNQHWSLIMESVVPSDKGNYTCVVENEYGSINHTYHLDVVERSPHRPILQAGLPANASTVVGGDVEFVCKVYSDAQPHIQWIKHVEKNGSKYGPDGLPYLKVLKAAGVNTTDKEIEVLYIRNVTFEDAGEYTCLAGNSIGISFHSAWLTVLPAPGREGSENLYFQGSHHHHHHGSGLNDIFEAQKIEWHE
In words: biolayer interferometry.

Series [19] addresses T13, FGFR2 ectodomain (residues 147-366) (human, UniProt P21802 147-366).
T13 construct: range 147-366; also called FGER2; Fibroblast growth factor receptor 2
In words: BLI (Octet); biotinylated target on streptavidin sensors, miniprotein as analyte.

Series [20] deals with T14, TGF-β (Acro Biosystems Cat #TG1-H8217) (human, UniProt P01137 279-390).
T14 construct: also called TGFb; Transforming growth factor beta
T14 sequence (P01137 279-390 limits assumed): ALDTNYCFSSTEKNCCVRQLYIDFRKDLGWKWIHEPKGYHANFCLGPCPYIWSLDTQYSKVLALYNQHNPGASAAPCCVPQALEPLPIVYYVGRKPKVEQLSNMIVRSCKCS
The series is described as above.

The target of series [21] is T15, Biotinylated CD3 protein (Abcam Cat #ab205994) (human, UniProt P04234 22-105).
T15 construct: also called CD3δ; CD3 delta chain
T15 sequence (P04234 22-105 limits assumed): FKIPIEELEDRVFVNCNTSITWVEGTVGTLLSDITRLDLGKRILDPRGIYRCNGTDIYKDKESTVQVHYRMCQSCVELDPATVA
The series is described as above.

Read-outs that look alike come from different tables or passages of the source.

Sequence of Influenza A H3 hemagglutinin (A/Hong Kong/1/1968) ectodomain (Q91MA7 17-530): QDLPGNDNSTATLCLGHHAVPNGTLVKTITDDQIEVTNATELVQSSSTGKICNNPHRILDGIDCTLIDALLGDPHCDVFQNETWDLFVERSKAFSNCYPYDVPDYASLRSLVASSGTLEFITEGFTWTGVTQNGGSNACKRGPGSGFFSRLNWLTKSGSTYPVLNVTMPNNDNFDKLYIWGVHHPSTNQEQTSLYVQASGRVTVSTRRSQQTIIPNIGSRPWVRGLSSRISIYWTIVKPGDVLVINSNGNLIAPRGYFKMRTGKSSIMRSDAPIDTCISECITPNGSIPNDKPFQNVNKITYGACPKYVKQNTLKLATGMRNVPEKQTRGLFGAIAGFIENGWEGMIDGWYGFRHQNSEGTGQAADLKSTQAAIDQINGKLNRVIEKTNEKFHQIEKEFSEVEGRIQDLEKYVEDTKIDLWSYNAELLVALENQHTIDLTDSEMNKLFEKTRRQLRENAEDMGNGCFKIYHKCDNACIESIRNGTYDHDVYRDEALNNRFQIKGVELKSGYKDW
Sequence of human TrkA ECD (residues 36-382) (P04629 other isoform, or with tags, fused parts or gaps limits assumed): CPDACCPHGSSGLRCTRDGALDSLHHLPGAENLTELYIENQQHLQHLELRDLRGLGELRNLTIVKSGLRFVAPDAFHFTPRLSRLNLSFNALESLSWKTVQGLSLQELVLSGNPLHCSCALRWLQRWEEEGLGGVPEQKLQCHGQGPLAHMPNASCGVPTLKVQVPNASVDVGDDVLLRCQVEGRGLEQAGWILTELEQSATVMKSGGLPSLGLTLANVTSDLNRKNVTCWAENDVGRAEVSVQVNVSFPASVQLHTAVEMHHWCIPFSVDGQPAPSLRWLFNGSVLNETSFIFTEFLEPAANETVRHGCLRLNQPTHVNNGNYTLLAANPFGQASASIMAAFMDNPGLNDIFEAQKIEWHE
T7 sequence (Q02763 other isoform, or with tags, fused parts or gaps limits assumed): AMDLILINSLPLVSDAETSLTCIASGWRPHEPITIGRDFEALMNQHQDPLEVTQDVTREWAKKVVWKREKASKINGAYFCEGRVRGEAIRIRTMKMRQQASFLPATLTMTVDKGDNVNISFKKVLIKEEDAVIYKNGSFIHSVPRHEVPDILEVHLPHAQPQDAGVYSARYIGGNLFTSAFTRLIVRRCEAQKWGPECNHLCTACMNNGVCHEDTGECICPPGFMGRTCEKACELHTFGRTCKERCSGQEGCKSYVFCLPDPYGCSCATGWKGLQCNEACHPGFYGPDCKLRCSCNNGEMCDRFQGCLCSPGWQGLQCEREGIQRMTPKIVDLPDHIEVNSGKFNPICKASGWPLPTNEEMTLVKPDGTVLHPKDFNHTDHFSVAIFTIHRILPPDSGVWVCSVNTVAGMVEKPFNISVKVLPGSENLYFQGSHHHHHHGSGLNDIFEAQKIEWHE
T13 sequence (P21802 other isoform, or with tags, fused parts or gaps limits assumed, form in doubt): as the sequence (P21802 other isoform, or with tags, fused parts or gaps limits assumed, form in doubt) above
T4 sequence (P03452 18-528): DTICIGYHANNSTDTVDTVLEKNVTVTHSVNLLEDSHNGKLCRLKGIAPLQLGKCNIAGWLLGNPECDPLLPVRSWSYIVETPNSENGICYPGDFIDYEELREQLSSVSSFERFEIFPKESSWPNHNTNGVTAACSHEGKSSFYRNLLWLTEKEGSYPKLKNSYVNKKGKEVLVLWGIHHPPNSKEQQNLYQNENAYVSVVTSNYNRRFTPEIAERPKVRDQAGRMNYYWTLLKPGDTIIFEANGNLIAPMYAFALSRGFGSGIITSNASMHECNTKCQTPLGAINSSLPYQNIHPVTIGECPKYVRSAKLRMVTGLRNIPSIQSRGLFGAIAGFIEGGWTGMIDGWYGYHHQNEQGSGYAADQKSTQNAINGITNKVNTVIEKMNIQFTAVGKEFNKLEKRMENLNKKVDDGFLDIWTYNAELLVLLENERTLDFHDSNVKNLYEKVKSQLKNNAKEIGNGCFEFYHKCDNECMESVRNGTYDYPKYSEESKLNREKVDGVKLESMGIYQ
Sequence of Human TrkA ECD (residues 36-382) with C-terminal BAP tag and 6xHis tag (P04629 other isoform, or with tags, fused parts or gaps limits assumed): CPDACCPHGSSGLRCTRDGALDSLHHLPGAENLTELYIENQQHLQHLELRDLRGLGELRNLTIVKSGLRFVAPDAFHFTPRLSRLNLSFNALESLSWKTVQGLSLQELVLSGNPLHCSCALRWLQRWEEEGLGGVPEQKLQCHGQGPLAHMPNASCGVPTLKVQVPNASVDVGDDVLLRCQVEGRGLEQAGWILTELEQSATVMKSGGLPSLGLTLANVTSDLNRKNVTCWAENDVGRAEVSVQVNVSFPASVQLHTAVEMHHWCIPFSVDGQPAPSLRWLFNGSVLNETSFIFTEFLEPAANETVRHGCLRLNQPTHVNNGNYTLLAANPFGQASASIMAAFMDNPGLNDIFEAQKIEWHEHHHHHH

In the case of “IL-7Rα binder: de novo miniprotein binder for IL-7Rα targeting the IL-7 binding site; probably IL7Ra_mb2, SEQ ID NO: 760 (SVKKKVRKVEKKARKAGDELAVLLARRVLEALEKGLVSEEDADESADRIEEALKK)”, the “affinity for IL-7Rα (in words)” value in series [1] (targeting the IL-7 binding site) was “picomolar affinity”.

Consider “IL-7Rα_mb (SVIEKLRKLEKQARKQGDEVLVMLARMVLEYLEKGWVSEEDADESADRIEEVLKK)”, for which the Kd (commonly the constant that tells how readily two partners part at equilibrium) in [1] (target IL-7Rα, optimized sequence, read-out: Octet kD) was determined as 0.312 nM. The TM in series [2] (optimized sequence) was over 95 °C.

B1: PDGFR_mb (designed binder)
chain: MSHHHHHHHHSENLYFQSGGGDDERLATLAFRALIKRAGVKNLDVKVTNGKVRVTITGRDQASFKALQLVFALARRLGLQVQIDTR
Molecule B1 returned a TM in series [2] (optimized sequence) of over 95 °C. The molecule also came in with a Kd in [3] of 53 nM.

B2: TrkA_mb (optimized TrkA binder, purified from E. coli) (designed binder)
chain: MSHHHHHHHHSENLYFQSGGGRDEIKERIFKAVVRAIVTGNPEQLKEAKKLLEKLKKLGRLDQDAKKFEKAIRQVEKRLRS
B2 came in with a Kd in series [4] of at most 1 nM.

B3: TrkA_mb (designed binder)
chain: MSHHHHHHHHSENLYFQSGGGRDEIKERIFKAVVRAIVTGNPEQLKEAKKLLEKLKKLGRLDQDAKKFEKAIRQVEKRLRS
On to B3, for which the Kd in series [5] came out at 1.4 nM.

B4: FGFR2 binder: optimized de novo miniprotein binder to FGFR2; probably SEQ ID NO: 144 (protein)
chain: DRRKEMDKVYRTAFKRITSTPDKEKRKEVVKEATEQLRRIAKDEEEKKKAAYMILFLKTLG
For B4, in [6], the “affinity for FGFR2 (in words)” value is reported as “picomolar”. Further, in series [7], the “inhibition of signaling through FGFR2 by the native agonist” value is “strong inhibition of signaling”.

B5: H3_mb (designed binder)
chain: MSHHHHHHHHSENLYFQSGGGSQHEKFLEWMLRKIEEAIKRGNKISAEFLINLAKNFIHVLGDDEIRRRLERLERQLH
As to B5, the TM in series [2] was over 95 °C. Further, in series [8], the affinity, expressed as Kd, was 320 nM.

B6: H3_mb (optimized H3 hemagglutinin binder, purified from E. coli) (designed binder)
chain: MSHHHHHHHHSENLYFQSGGGSQHEKFLEWMLRKIEEAIKRGNKISAEFLINLAKNFIHVLGDDEIRRRLERLERQLH
As for B6, the binding result in series [9] is recorded as “binds”.

B7: InsulinR binder: optimized de novo miniprotein binder to insulin receptor; probably InsulinR_mb5, SEQ ID NO: 788 (protein)
chain: DEELLELVYEAVEKNDPRLLFEAWMILASLLDKTGDPKIEELLRLLQLVDRGDPDARRRIKELFK
For B7, in series [10], the “binding affinity for InsulinR (in words)” value was “weak”.

B8: InsulinR_mb (designed binder)
chain: MSHHHHHHHHSENLYFQSGGGDEELMELVYEAVEKNDPELLFEAWMELASLLDETGDPKIEEALGLLQQVDGGNPDAGRRIKELFK
For the molecule B8, in [2] (optimized sequence), the TM stood at 65 °C ° C. This molecule registered a Kd in [11] of 270 nM.

B9: MBP-tagged Tie2_mb (designed binder)
chain: SIDEELERLLEEAGVDPELIDDLYAVIYQLYIRGLSDKDVLRFLLENLERDGTPLRRVVEELLKR
notes: not shown: N-terminal 6 His-tag and MBP tag
The molecule B9 came in with a Kd in series [12] of 584 nM.

B10: Tie2 binder: optimized de novo miniprotein binder to Tie2; probably Tie2_mb2, SEQ ID NO: 1451 (protein)
chain: SIDEELERLLEEAGVDPELIDDLYAVIYQLYIRGLSDKDVLRFLLENLERDGTPLRRVVEELLKR
On to B10, for which the “binding affinity for Tie2 (in words)” value in [13] was “weak and low”.

B11: Tie2_mb (protein)
chain: SIDEELERLLEEAGVDPELIDDLYAVIYQLYIRGLSDKDVLRFLLENLERDGTPLRRVVEELLKR
modifications: left off: large carriers
As for B11, the TM in [2] (optimized sequence) is over 95 °C.

B12: MBP-tagged IGF1R_mb (designed binder)
chain: STRNAEFIMLLLELCVKSKNDPQVQEYVKKVKKQVERLVGNGDEKKAEEVARKALEYCADG
notes: as for B9
With B12, the TM in series [2] (optimized sequence) was over 95 °C. In addition, in series [14], binding was put at a Kd of 860 nM. For the same molecule, the “binding affinity for IGF1R (in words)” value in series [15] is “weak and low”.

B13: EGFRc_mb (designed binder)
chain: MSHHHHHHHHSENLYFQSGGGSLDEAKKLLQEAEKLARKLNDRMELAYVEFLKHILETAKKQNDKRTIESVRDMARDALEELQS
Consider B13, for which, in series [2] (optimized sequence), the TM turned out to be 71.2 °C. In addition, the Kd in series [16] was found to be 6.8 nM.

B14: IL-7Rα_mb (designed binder)
chain: MSHHHHHHHHSENLYFQSGGGSVIEKLRKLEKQARKQGDEVLVMLARMVLEYLEKGWVSEEDADESADRIEEVLKK
Molecule B14 showed a Kd in series [17] of 0.312 nM.

B15: FGFR2_mb (optimized FGFR2 binder, purified from E. coli) (designed binder)
chain: MSHHHHHHHHSENLYFQSGGGDRRKEMDKVYRTAFKRITSTPDKEKRKEVVKEATEQLRRIAKDEEEKKKAAYMILFLKTLG
notes: also called FGFR2_mb3
In series [18], B15 had a Kd of at most 1 nM.

B16: FGFR2_mb (designed binder)
chain: MSHHHHHHHHSENLYFQSGGGDRRKEMDKVYRTAFKRITSTPDKEKRKEVVKEATEQLRRIAKDEEEKKKAAYMILFLKTLG
As for B16, the TM in series [2] (optimized sequence) was 71.1 ºC ° C. This molecule also displayed a Kd in series [19] of 0.543 nM.

B17: TGF-β_mb (designed binder)
chain: MSHHHHHHHHSENLYFQSGGGHCTIEVVGVDPEKVEAIAAAYGAEVCEKDGKFEIHLDDPHSAESAAVAISVLTNRPVRLQC
For the molecule B17, the TM in series [2] (optimized sequence) is over 95 °C. The affinity in [20], expressed as Kd, was 270 nM.

B18: CD3δ_mb (designed binder)
chain: MSHHHHHHHHSENLYFQSGGGNHIACEIHNPEAAKEIAKVANVRRVYFIKQPGNRYFVLLKNADPEGVKKVRSKYNVRCVIRE
On to B18, for which, in series [2] (optimized sequence), the TM is over 95 °C. In series [21], the Kd worked out at 612 nM.

B19: EGFRn_mb (designed binder)
chain: MSHHHHHHHHSENLYFQSGGGDHWEEVFRWALEHLQEATQQNDPQKAKKILEEAHKWLRRELSEEEARAVVRWLKQLVDRELS
With B19, in series [2] (optimized sequence), the TM was over 95 °C. Further, the Kd in series [16] was found to be 1.7 nM.
